The source of these data is publication PMC9909464, “The human MRS2 magnesium-binding domain is a regulatory feedback switch for channel activity” (Life Science Alliance, 2023).

One may read the stoichiometry N as the number of molecules, sites or subunits per partner or assembly.

Series [1] concerns the molecule itself. Kind of series: dynamic light scattering; 0.5 mg/ml in 20 mM Tris, 150 mM NaCl, 1 mM DTT, 10 mM CHAPS, pH 8.0, 37°C; no divalent cations (5 mM MgCl2 or 5 mM CaCl2 gave no change); higher order oligomers.
Series [2] deals with the molecule itself. The experiment in a line: SEC-MALS; Superdex 200 Increase 10/300 GL, 20 mM Tris, 150 mM NaCl, 1 mM DTT, pH 8.0, ~10°C; no divalent cations; injected at 0.45-5 mg/ml; monomer to dimer. On the technique in general: Size exclusion chromatography separates by hydrodynamic size, large species first.

Residue numbers refer to the chain shown, from its start. Names may count otherwise.

B1: full-length human MRS2 excluding the mitochondrial targeting sequence, MRS2_(58–443) (natural protein, UniProt Q9HD23 58-443, looked up)
chain: DRLRVAGEVHRFRTSDVSQATLASVAPVFTVTKFDKQGNVTSFERKKTELYQELGLQARDLRFQHVMSITVRNNRIIMRMEYLKAVITPECLLILDYRNLNLEQWLFRELPSQLSGEGQLVTYPLPFEFRAIEALLQYWINTLQGKLSILQPLILETLDALVDPKHSSVDRSKLHILLQNGKSLSELETDIKIFKESILEILDEEELLEELCVSKWSDPQVFEKSSAGIDHAEEMELLLENYYRLADDLSNAARELRVLIDDSQSIIFINLDSHRNVMMRLNLQLTMGTFSLSLFGLMGVAFGMNLESSLEEDHRIFWLITGIMFMGSGLIWRRLLSFLGRQLEAPLPPMMASLPKKTLLADRSMELKNSLRLDGLGSGRSILTNR
notes: in CHAPS micelles in the assay; also called full-length MRS2; source: E. coli BL21 (DE3), purified as the NTD with 10 mM CHAPS in elution and SEC buffers; not shown: His6, N-terminal, cleaved
With B1, in series [1], the binding result is reported as “binds”.

B2: human MRS2 amino terminal domain, MRS2_(58–333) (domain or fragment, UniProt Q9HD23 58-333, looked up)
chain: DRLRVAGEVHRFRTSDVSQATLASVAPVFTVTKFDKQGNVTSFERKKTELYQELGLQARDLRFQHVMSITVRNNRIIMRMEYLKAVITPECLLILDYRNLNLEQWLFRELPSQLSGEGQLVTYPLPFEFRAIEALLQYWINTLQGKLSILQPLILETLDALVDPKHSSVDRSKLHILLQNGKSLSELETDIKIFKESILEILDEEELLEELCVSKWSDPQVFEKSSAGIDHAEEMELLLENYYRLADDLSNAARELRVLIDDSQSIIFINLDSHRN
notes: Cloned into pET-28a by NdeI and XhoI; also called MRS2 NTD; NTD; source: E. coli BL21 (DE3), purified (nickel-NTA, thrombin cleavage, SEC S200); not shown: His6, N-terminal, cleaved
As for B2, in series [2], the “stoichiometry N” value amounted to 2.

B3: MRS2_(58–333) D216A/D220A (domain or fragment, human, UniProt Q9HD23 58-333, looked up)
chain: B2 chain with D159A, D163A
notes: also called D216A/D220A MRS2 NTD double mutant; not shown: His6, N-terminal, cleaved
As to B3, in series [2], the “stoichiometry N” value is 2.
